Test results as given in patent US20140072613A1 (published 2014).

T1: Itk(h) (human, UniProt Q08881 352-620, limits assumed)
T1 sequence (looked up): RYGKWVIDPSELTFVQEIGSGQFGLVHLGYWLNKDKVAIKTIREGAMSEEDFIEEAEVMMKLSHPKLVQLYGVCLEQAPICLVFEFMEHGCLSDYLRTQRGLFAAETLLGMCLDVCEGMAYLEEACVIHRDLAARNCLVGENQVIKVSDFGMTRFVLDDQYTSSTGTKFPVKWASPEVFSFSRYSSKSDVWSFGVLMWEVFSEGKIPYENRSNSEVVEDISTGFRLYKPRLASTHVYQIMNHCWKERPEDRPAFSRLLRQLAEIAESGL

T2: Fms(h) (human, UniProt P07333 538-972, limits assumed)
T2 sequence (looked up): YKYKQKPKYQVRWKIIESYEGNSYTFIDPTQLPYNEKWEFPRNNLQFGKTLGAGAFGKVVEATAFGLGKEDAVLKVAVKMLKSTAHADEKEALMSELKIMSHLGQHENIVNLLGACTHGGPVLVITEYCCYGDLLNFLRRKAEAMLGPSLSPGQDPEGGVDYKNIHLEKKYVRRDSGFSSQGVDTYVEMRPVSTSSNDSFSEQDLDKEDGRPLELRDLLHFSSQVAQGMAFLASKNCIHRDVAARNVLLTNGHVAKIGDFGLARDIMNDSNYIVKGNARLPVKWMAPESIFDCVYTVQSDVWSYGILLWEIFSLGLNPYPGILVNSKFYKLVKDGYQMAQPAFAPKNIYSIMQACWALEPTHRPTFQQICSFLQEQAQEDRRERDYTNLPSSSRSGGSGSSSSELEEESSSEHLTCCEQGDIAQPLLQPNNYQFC

T3: PhKγ2(h) (human, UniProt P15735 1-406)
T3 sequence (looked up): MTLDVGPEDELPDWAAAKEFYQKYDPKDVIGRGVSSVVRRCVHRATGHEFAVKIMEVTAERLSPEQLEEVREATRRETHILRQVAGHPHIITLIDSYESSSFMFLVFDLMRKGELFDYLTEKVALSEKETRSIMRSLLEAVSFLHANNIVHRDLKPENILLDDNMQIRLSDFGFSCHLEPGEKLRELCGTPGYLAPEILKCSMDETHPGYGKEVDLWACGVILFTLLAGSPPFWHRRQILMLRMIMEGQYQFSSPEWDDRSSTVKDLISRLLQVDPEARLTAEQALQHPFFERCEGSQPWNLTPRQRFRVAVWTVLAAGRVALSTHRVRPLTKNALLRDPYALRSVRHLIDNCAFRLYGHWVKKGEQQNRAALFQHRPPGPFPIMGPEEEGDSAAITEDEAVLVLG

T4: DRAK1(h) (human, UniProt Q9UEE5 1-414, limits assumed)
T4 sequence (looked up): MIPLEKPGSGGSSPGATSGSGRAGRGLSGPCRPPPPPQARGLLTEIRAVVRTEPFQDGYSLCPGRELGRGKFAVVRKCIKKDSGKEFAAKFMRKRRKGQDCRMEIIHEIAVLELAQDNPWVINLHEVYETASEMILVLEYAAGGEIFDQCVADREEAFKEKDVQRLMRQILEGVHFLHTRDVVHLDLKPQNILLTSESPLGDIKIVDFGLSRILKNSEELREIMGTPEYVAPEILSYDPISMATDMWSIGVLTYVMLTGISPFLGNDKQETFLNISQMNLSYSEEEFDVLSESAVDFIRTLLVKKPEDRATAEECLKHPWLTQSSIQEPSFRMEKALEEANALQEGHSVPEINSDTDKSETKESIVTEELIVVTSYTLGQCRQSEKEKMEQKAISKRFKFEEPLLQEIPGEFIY

T5: PKG1β(h) (human, UniProt Q13976-2 1-686)
T5 sequence (looked up): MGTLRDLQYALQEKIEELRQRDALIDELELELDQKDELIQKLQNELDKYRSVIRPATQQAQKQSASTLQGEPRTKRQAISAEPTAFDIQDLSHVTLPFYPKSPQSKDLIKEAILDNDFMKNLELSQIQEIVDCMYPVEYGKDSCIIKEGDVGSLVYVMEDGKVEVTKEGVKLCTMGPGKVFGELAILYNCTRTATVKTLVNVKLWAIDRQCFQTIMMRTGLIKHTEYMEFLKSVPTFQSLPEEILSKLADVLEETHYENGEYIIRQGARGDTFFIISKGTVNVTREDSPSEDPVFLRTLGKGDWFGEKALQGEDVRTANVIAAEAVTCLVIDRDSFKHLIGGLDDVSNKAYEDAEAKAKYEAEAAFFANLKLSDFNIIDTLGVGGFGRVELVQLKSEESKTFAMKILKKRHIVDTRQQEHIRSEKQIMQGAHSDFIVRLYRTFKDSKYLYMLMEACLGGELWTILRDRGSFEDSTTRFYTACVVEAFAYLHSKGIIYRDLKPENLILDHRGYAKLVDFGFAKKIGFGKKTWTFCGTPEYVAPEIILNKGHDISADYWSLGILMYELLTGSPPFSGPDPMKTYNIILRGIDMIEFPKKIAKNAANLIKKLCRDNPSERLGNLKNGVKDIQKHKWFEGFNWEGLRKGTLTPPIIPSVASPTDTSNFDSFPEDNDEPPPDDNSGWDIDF


Legend:
Assay in all cases: cell-based or functional assay
Itk(h) = target: T1, Itk(h)
PDGFRα(D842V)(h) = PDGFRα(D842V)(h) (human, UniProt P16234 550-1089, limits assumed)
Sequence of PDGFRα(D842V)(h) (P16234 550-1089 D842V limits assumed): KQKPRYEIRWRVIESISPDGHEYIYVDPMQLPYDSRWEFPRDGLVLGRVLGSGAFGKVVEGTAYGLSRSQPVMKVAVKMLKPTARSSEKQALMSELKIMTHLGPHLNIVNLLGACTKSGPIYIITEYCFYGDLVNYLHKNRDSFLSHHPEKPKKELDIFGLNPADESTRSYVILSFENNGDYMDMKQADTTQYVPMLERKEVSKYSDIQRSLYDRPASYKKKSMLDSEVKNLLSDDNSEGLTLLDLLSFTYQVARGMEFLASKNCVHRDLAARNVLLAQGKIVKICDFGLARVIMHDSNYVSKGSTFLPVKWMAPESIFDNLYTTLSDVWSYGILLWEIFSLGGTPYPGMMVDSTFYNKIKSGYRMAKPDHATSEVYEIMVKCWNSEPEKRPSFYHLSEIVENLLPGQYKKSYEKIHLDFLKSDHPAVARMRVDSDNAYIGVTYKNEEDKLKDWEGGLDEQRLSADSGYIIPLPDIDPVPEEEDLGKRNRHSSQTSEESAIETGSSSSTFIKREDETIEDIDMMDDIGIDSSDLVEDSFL

SAPK2b(h) = SAPK2b(h) (human, UniProt Q15759 1-364)
Sequence of SAPK2b(h) (Q15759 whole entry): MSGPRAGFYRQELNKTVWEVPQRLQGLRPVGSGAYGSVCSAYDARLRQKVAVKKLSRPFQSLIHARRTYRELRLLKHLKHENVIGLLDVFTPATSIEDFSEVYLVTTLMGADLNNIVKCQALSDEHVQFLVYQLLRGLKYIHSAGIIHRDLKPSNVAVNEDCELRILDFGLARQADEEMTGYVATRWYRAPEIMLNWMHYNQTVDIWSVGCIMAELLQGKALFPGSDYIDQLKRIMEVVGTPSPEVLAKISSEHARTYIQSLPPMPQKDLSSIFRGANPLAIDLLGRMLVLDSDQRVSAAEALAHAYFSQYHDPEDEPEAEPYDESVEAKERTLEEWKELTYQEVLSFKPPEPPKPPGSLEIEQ

ALK(h) = ALK(h) (human, UniProt Q9UM73 1058-1620, limits assumed)
Sequence of ALK(h) (Q9UM73 1058-1620 limits assumed): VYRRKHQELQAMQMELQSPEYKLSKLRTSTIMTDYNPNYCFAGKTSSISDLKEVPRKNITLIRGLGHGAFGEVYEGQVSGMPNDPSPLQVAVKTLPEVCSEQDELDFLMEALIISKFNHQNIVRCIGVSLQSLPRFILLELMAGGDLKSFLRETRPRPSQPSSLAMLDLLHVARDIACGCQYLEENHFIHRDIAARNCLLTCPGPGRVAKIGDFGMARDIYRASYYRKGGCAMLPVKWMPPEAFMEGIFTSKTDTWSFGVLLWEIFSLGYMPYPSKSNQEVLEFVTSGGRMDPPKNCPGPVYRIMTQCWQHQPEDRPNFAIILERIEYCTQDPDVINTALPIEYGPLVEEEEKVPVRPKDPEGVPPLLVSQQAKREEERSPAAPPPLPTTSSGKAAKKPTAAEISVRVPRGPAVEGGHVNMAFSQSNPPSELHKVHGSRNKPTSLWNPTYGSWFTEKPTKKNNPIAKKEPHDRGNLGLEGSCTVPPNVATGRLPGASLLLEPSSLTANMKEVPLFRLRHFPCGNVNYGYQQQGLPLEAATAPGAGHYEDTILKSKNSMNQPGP

Pim-3(h) = Pim-3(h) (human, UniProt Q86V86 1-326)
Fms(h) = target: T2, Fms(h)
MAPKAP-K2(h) = MAPKAP-K2(h) (human, UniProt P49137 46-400)
Sequence of MAPKAP-K2(h) (P49137 46-400 limits assumed): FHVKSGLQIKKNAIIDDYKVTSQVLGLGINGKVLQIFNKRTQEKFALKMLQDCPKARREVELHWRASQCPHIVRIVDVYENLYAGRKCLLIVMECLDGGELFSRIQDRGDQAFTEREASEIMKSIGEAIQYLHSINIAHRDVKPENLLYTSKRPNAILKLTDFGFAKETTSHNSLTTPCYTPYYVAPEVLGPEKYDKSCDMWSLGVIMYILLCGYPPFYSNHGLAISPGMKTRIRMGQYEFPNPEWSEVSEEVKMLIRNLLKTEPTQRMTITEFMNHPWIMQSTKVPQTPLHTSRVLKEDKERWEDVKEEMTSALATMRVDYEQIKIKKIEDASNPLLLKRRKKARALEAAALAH

PhKγ2(h) = target: T3, PhKγ2(h)
MELK(h) = MELK(h) (human, UniProt Q14680 1-340, limits assumed)
Sequence of MELK(h) (Q14680 1-340 limits assumed): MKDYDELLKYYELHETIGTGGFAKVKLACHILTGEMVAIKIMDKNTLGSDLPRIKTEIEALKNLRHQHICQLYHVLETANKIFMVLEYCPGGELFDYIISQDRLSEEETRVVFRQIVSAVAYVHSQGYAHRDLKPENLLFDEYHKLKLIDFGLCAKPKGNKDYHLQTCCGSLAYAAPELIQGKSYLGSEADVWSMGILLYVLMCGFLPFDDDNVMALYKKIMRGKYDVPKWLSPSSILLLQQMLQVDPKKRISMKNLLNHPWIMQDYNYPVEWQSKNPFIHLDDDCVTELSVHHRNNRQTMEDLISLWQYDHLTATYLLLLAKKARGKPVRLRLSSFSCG

DRAK1(h) = target: T4, DRAK1(h)
PKG1β(h) = target: T5, PKG1β(h)
Met(Y1248C)(h) = Met(Y1248C)(h) (human, UniProt P08581-2 974-1408, limits assumed)
CK2(h) = CK2(h) (human)
Rsk2(h) = Rsk2(h) (human, UniProt P51812 1-740)
Sequence of Rsk2(h) (P51812 whole entry): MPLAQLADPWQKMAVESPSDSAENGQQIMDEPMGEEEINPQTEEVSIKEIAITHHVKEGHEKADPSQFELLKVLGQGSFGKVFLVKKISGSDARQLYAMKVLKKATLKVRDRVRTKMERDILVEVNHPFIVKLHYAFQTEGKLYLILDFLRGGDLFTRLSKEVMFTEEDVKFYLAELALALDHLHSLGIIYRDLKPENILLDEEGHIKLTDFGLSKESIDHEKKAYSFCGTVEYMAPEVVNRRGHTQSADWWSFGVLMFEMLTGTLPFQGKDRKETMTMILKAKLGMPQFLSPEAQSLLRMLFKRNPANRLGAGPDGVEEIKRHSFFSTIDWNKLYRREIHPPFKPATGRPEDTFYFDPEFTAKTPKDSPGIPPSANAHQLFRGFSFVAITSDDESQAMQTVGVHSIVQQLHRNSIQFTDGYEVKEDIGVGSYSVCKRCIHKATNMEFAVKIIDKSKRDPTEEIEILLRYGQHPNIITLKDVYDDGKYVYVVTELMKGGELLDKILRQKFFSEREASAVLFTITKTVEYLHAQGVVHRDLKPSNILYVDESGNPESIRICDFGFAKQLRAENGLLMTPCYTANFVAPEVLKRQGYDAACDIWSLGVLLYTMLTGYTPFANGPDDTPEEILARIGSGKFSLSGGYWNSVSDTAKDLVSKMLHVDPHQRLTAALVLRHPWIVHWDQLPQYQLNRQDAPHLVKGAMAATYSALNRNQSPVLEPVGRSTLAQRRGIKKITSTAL

| Binder | % activity, 100 µM (Itk(h)) | % activity, 100 µM (PDGFRα(D842V)(h)) | % activity, 100 µM (SAPK2b(h)) | % activity, 100 µM (ALK(h)) | % activity, 100 µM (Pim-3(h)) | % activity, 100 µM (Fms(h)) | % activity, 100 µM (MAPKAP-K2(h)) | % activity, 100 µM (PhKγ2(h)) | % activity, 100 µM (MELK(h)) | % activity, 100 µM (DRAK1(h)) | % activity, 100 µM (PKG1β(h)) | % activity, 100 µM (Met(Y1248C)(h)) | % activity, 100 µM (CK2(h)) | % activity, 100 µM (Rsk2(h)) |
| --- | --- | --- | --- | --- | --- | --- | --- | --- | --- | --- | --- | --- | --- | --- |
| FAKLAARLYRKALARQLGVAA [MMI-0300] | 77% | 114% | 81% | 19% | 80% | 45% | 5% | 46% | 16% | 14% | 50% | 84% | 90% | 51% |
| KAFAKLAARLYRKALARQLGVAA [MMI-0400] | 63% | 118% | 82% | 16% | 80% | 37% | 5% | 38% | 17% | 14% | 53% | 36% | 101% | 38% |
